Consider three molecules from PMC2710861.

For data set [1], the target named is T1, Rad52 (human, UniProt P43351 1-418).
T1 sequence: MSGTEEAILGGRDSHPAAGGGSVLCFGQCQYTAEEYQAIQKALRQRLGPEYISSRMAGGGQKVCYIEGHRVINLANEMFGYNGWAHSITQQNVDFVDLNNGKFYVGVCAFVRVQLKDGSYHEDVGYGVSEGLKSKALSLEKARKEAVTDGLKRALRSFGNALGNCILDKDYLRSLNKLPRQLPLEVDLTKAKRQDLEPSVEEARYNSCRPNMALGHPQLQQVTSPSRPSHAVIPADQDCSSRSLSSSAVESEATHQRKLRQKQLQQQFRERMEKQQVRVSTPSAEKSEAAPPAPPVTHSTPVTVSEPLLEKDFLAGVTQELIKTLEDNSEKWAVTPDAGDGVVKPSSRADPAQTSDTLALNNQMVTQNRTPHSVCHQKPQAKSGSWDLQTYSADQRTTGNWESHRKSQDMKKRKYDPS
The data set is described as follows: UV cross-linking.

Data set [2] has as its target RPA heterotrimer (RPA70/RPA32/RPA14) (human, UniProt P27694;P15927;P35244 1-616;1-270;1-121). The data set is described as follows: EMSA. In general terms: Mobility shift assays separate free from complexed probe on a gel.
Data set [3] deals with RPA heterotrimer (RPA70/RPA32/RPA14);Rad52 (human;human, UniProt P27694;P15927;P35244;P43351 1-616;1-270;1-121;1-418, |). The data set is described as follows: SEC-MALS and UV cross-linking. A general note: In gel filtration, larger molecules generally elute earlier.
RPA heterotrimer (RPA70/RPA32/RPA14);Rad52, sequence (P27694 whole entry, chain 1 of 3): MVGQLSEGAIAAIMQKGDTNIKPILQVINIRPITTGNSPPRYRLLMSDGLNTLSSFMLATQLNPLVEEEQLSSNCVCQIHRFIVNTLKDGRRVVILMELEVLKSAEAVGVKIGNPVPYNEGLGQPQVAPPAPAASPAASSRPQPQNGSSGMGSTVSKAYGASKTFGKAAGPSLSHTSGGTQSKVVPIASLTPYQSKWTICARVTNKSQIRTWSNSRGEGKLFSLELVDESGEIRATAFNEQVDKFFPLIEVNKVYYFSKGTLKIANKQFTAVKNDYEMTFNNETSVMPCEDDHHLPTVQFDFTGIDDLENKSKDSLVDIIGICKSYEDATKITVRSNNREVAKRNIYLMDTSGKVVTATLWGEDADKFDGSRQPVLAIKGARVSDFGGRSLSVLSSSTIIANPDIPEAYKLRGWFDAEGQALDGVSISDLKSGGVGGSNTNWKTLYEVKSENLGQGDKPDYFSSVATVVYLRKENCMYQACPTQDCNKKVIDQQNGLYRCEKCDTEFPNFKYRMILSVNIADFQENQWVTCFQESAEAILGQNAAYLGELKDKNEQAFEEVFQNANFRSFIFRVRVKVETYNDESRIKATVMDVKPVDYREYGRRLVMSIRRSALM
RPA heterotrimer (RPA70/RPA32/RPA14);Rad52, sequence (P15927 whole entry, chain 2 of 3): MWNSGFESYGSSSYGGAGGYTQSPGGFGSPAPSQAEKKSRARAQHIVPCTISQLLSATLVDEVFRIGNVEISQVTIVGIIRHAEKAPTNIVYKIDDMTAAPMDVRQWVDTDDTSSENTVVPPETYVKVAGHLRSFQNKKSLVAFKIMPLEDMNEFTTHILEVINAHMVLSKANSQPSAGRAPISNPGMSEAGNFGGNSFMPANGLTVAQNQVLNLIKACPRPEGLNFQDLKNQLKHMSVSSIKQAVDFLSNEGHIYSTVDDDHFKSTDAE
RPA heterotrimer (RPA70/RPA32/RPA14);Rad52, sequence (P35244 whole entry, chain 3 of 3): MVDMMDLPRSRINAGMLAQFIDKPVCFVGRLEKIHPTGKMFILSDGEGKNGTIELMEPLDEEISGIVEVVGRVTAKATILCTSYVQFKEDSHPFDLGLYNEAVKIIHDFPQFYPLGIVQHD
The target in data set [4] is T1, Rad52. Put plainly: SEC-MALS.
For data set [5], the target named is T1, Rad52. Put plainly: EMSA.

RPA heterotrimer (RPA70/RPA32/RPA14), sequence (P27694 whole entry, chain 1 of 3): as the sequence (P27694 whole entry, chain 1 of 3) above
RPA heterotrimer (RPA70/RPA32/RPA14), sequence (P15927 whole entry, chain 2 of 3): as the sequence (P15927 whole entry, chain 2 of 3) above
RPA heterotrimer (RPA70/RPA32/RPA14), sequence (P35244 whole entry, chain 3 of 3): as the sequence (P35244 whole entry, chain 3 of 3) above

Take GCTAGCTCAATTCATCGACAAACCT (ssDNA) [25-mer mixed sequence ssDNA, 3'-biotin]: the binding result (in the data set with Rad52 [1]; in data set [2]; in data set [3]) was “binds” each time.

On to GCTAGCTCAATTCATCGACAAACCTCCTCGCTCAATTCATAGTC (ssDNA) [44-mer mixed sequence ssDNA], for which, in the data set with Rad52 [4], the binding result is reported as “binds”.

Regarding GCTAGCTCAATTCATCGACAAACCT (ssDNA) [25-mer mixed sequence ssDNA, 5'-biotin], the binding result with Rad52 [5] is listed as “binds”.
